Measured values reported in patent publication US20200317768A1 (published 2020).
Residue numbers refer to the chain shown, from its start. Numbers in names are those of the source.

T1: cynomolgus monkey FcγRIIa1 extracellular domain, C-terminal His-tag (cynomolgus monkey)
T1 construct: also called cyno FcγRIIa1; cynoFcgRIIa1; not shown: His-tag added to C-terminus
T1 chain: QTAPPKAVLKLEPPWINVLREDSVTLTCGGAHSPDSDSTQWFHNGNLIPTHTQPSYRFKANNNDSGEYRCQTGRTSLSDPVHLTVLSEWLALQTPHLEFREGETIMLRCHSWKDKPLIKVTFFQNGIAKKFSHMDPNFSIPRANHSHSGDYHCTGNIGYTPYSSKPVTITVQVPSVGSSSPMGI

T2: cynomolgus monkey FcγRIIa2 extracellular domain, C-terminal His-tag (cynomolgus monkey)
T2 construct: also called cyno FcγRIIa2; cynoFcgRIIa2; not shown: His-tag added to C-terminus
T2 chain: T1 chain with P95T, T121A, I127K, A128S, K130N, D135N, R142Q

T3: cynomolgus monkey FcγRIIa3 extracellular domain, C-terminal His-tag (cynomolgus monkey)
T3 construct: also called cyno FcγRIIa3; cynoFcgRIIa3; not shown: His-tag added to C-terminus
T3 chain: T1 chain with P95T, T121A, A128S, H133P, D135N

T4: cynomolgus monkey FcγRIIb extracellular domain, C-terminal His-tag (cynomolgus monkey)
T4 construct: also called cyno FcγRIIb; cynoFcγRIIb; not shown: His-tag added to C-terminus
T4 chain: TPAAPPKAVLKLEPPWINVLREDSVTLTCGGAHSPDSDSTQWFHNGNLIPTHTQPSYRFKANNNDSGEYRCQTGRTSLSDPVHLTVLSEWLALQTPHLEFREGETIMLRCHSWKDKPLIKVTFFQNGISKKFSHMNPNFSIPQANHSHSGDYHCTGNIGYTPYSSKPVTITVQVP

T5: human FcγRIIaH extracellular domain, C-terminal His-tag (human, UniProt P12318 34-217)
T5 construct: also called human FcγRIIa (type H); FcgRIIaH; not shown: His-tag added to C-terminus
T5 sequence: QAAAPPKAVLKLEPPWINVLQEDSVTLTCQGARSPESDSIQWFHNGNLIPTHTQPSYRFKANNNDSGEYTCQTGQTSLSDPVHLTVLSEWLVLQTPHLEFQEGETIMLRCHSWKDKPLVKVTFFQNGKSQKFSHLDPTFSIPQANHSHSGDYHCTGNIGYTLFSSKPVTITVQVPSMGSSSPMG

T6: human FcγRIIaR extracellular domain, C-terminal His-tag (human, UniProt P12318 34-217)
T6 construct: also called human FcγRIIa (type R); FcgRIIaR; not shown: His-tag added to C-terminus
T6 chain: T5 sequence with H134R

T7: human FcγRIIb extracellular domain, C-terminal His-tag (human, UniProt P31994 43-217)
T7 construct: also called humanFcgRIIb; not shown: His-tag added to C-terminus
T7 sequence: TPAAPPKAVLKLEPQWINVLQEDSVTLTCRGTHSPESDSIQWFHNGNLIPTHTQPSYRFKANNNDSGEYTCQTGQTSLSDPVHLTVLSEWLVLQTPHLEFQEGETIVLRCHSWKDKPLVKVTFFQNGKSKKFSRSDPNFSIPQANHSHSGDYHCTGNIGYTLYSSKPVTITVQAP

B1: M103205H795-MY536 / M103202L889-SK1 (antibody, human IgG1, kappa)
heavy: QVTLKESGPVLVKPTETLTLTCTVSGIDLSHDDISWVRQAPGKGLEWVGIISYAGSTYYASWAKGRLTISKDTSKNQVVLTMTNMDPVDTATYYCARGVPAYSHGGDLWGQGTLVTVSSASTKGPSVFPLAPSSKSTSGGTAALGCLVKDYFPEPVTVSWNSGALTSGVHTFPAVLQSSGLYSLSSVVTVPSSSLGTQTYICNVNHKPSNTKVDKKVEPKSCDKTHTCPPCPGPEWLTGPVVFLFPPKPKDTLMISRTPEVTCVVVDVSDEDPEVKFNWYVDGVEVHNAKTKPREEQYNSTYRVVSVLTVLHQDWLNGKEYKCKVSNKALPKPIEKTISKAKGQPREPQVYTLPPSREEMTKNQVSLTCLVKGFYPSDIAVEWESNGQPENNYKTTPPVLDSDGSFFLYSKLTVDKSRWQQGNVFSCSVMHEALHNHYTQKSLSLSP
light: DIVMTQSPATLSLSPGERATLSCTSSQSVYHANWLSWFQQKPGQPPKLLIYWASTLAYGVPSRFSGSGSGTDFTLTISSLQPEDAATYYCAGGYGGGRYAFGQGTKVEIKRTVAAPSVFIFPPSDEQLKSGTASVVCLLNNFYPREAKVQWKVDNALQSGNSQESVTEQDSKDSTYSLSSTLTLSKADYEKHKVYACEVTHQGLSSPVTKSFNRGEC
B2: M103205H795-MY537 / M103202L889-SK1 (antibody, human IgG1, kappa)
heavy: B1 heavy with Q297L
light: B1 light
B3: M103205H795-MY538 / M103202L889-SK1 (A231G/L234W/G236T/H268D/Q295L/A330K, as in Table 23B) (antibody, human IgG1, kappa)
heavy: B1 heavy with V241S, Q297L
light: B1 light

Target: T1, cynomolgus monkey FcγRIIa1 …
Assay: SPR (BIACORE); KD of SG1 / KD of variant;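 also: relative to parent M103205H795-SG1 carrying the SG1 human heavy chain constant region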
Description: (§1) The kinetic analysis of interactions between these antibodies and FcγR was carried out using BIACORE® T200 or BIACORE® 4000 (GE Healthcare). HBS-EP+ (GE Healthcare) was used as the running buffer, and the measurement temperature was set to 25° C. A chip produced by immobilizing Protein A. Protein A/G or mouse anti-human IgG kappa light chain (BD Biosciences) onto a Series S Sensor Chip CM4 or CM5 (GE Healthcare) by the amine-coupling method was used. […] After the measurement, the antibody captured on the chip was washed off by allowing reaction with 10 mM glycine-HCl, pH1.5 and 25 mM NaOH so that the chip was regenerated and used repeatedly. The sensorgrams obtained as measurement results were analyzed by the 1:1 Langmuir binding model using the BIACORE® Evaluation Software to calculate the binding rate constant ka (L/mol/s) and dissociation rate constant kd (l/s), and the dissociation constant KD (mol/L) was calculated from these values. […] Regarding such interactions, KD values were calculated using the following 1:1 binding model described in BIACORE® T100 Software Handbook BR1006-48 Edition AE.
(§2) The behavior of interacting molecules according to the 1:1 binding model on BIACORE® can be described by Equation 1: Req=C·R max/(KD+C)+RI, wherein, Req is a plot of steady-state binding levels to analyte concentration. C is concentration, RI is bulk refractive index contribution in the sample, and Rmax is analyte binding capacity of the surface. When this equation is rearranged, KD can be expressed as Equation 2: KD=C·Rmax/(Req−RI)−C. KD can be calculated by substituting the values of Rmax, RI, and C into Equation 1 or Equation 2. From the current measurement conditions, RI=0, C=2 μmol/L can be used.

| KD fold (SG1 = 1) [fold] | Binder |
| --- | --- |
| 2.7 | B1 |
| 2.7 | B2 |
| 3.3 | B3 |

Target: T2, cynomolgus monkey FcγRIIa2 …
Assay: SPR (BIACORE); KD of SG1 / KD of variant;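 also: relative to parent M103205H795-SG1 carrying the SG1 human heavy chain constant region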
Description: as §1, §2

| KD fold (SG1 = 1) [fold] | Binder |
| --- | --- |
| 4.6 | B1 |
| 4.6 | B2 |
| 4.6 | B3 |

Target: T3, cynomolgus monkey FcγRIIa3 …
Assay: SPR (BIACORE); KD of SG1 / KD of variant;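 also: relative to parent M103205H795-SG1 carrying the SG1 human heavy chain constant region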
Description: as §1, §2

| KD fold (SG1 = 1) [fold] | Binder |
| --- | --- |
| 17.3 | B1 |
| 12.1 | B2 |
| 5.7 | B3 |

Target: T4, cynomolgus monkey FcγRIIb extracellular …
Assay: SPR (BIACORE); KD of SG1 / KD of variant;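 also: relative to parent M103205H795-SG1 carrying the SG1 human heavy chain constant region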
Description: as §1, §2

| KD fold (SG1 = 1) [fold] | Binder |
| --- | --- |
| 4.5 | B1 |
| 3.6 | B2 |
| 6.4 | B3 |

Target: T8, cynomolgus monkey FcγRIIIaS extracellular domain, C-terminal His-tag (cynomolgus monkey, UniProt A3RFZ7 21-206 (rhesus entry))
T8 construct: also called cyno FcγRIIIaS; cynoFcγRIIIaS; not shown: His-tag added to C-terminus
T8 sequence (A3RFZ7 21-206): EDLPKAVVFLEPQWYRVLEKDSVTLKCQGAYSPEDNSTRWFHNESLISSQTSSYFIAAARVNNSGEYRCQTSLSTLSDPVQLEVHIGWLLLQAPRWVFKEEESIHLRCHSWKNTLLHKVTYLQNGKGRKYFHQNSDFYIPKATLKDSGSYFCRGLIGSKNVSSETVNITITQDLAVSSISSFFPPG
Assay: SPR (BIACORE); KD of SG1 / KD of variant
Description: as §1, §2

| KD fold (SG1 = 1) [fold] | Binder |
| --- | --- |
| 0.23 | B1 |
| 0.24 | B2 |
| 0.15 | B3 |

Target: T5, human FcγRIIaH extracellular domain, …
Assay: SPR (BIACORE); KD of SG1 / KD of variant
Description: as §1, §2

| KD fold (SG1 = 1) [fold] | Binder |
| --- | --- |
| 2.4 | B1 |
| 2.5 | B2 |
| 2.8 | B3 |

Target: T6, human FcγRIIaR extracellular domain, …
Assay: SPR (BIACORE); KD of SG1 / KD of variant
Description: as §1, §2

| KD fold (SG1 = 1) [fold] | Binder |
| --- | --- |
| 5 | B1 |
| 3 | B2 |
| 1.8 | B3 |

Target: T7, human FcγRIIb extracellular domain, …
Assay: SPR (BIACORE); KD of SG1 / KD of variant
Description: as §1, §2

| KD fold (SG1 = 1) [fold] | Binder |
| --- | --- |
| 4.6 | B1 |
| 4.6 | B2 |
| 3.5 | B3 |

Target: T9, human FcγRIIIaV extracellular domain, C-terminal His-tag (human, UniProt P08637 17-208)
T9 construct: also called FcgRIIIaV; not shown: His-tag added to C-terminus
T9 sequence (P08637 17-208 F176V): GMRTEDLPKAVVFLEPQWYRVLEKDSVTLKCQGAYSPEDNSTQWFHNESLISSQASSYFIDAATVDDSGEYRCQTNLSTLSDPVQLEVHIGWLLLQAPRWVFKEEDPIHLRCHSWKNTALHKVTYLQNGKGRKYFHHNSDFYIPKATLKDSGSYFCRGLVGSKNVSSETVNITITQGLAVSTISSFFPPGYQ
Assay: SPR (BIACORE); KD of SG1 / KD of variant
Description: as §1, §2

| KD fold (SG1 = 1) [fold] | Binder |
| --- | --- |
| 0.3 | B1 |
| 0.25 | B2 |
| 0.14 | B3 |
